How the values were obtained:
[1] = tested on: Gαq downstream of the muscarinic receptor; test: Muscarinic receptor-dependent activation of PLC-β, [3H]inositol phosphate accumulation in HEK293 cells; assay type: cell-based; settings: peptide for 30 minutes (FIG. 9)
Description: FIG. 9. Muscarinic receptor-dependent activation of PLC-β was determined by quantification of [^3H]inositol phosphate accumulation. Where indicated, HEK293 cells were treated with Palm-27-mer peptide for 30 minutes.
Since a major tenet of this invention is to interdict Gαq signaling in cells with peptidomimetics, it will be necessary to efficiently introduce peptides derived from this scaffold into cells. […] Moreover, once introduced, this peptide prevented the stimulation of PLC activity by Gαq downstream of the P2Y6 receptor and/or muscarinic receptor, a G protein-coupled receptor selective for Gαq (FIG. 7C and FIG. 9).
Since a major tenet of this work is to downregulate G-alpha-q signaling in cells with peptidomimetics, peptides derived from this scaffold have been efficiently delivered into cells.

activated Gαq = target: T1, activated Gαq (Homo sapiens, UniProt P50148); settings: full-length protein; read-out: dissociation constant (KD) for activated Gαq; cited from earlier work
T1 sequence (P50148 1-359): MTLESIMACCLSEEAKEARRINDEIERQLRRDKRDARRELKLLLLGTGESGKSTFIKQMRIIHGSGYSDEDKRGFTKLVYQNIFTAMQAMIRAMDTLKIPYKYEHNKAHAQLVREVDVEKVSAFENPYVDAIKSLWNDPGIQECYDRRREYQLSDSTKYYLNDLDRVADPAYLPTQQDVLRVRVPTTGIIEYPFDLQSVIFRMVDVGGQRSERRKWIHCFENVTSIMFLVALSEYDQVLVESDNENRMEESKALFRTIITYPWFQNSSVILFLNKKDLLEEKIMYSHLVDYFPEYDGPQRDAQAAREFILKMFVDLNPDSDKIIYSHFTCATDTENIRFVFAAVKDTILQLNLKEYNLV

Gαq = target: T2, Gαq (Homo sapiens, UniProt P50148); test: Fluorescence polarization competition: unlabeled PLC-β3 against TAMRA-labeled peptide for Gαq; assay type: binding; settings: TAMRA-27-mer 400 nM, Gαq 800 nM
T2 sequence (P50148 1-359): T1 sequence (P50148 1-359)
Description: FIGS. 3A and 3B. TAMRA-27-mer and PLC-β3 directly compete for Gαq. (FIG. 3A) Increasing concentrations of PLC-β3 were added to a solution of TAMRA-27-mer (400 nM) and Gαq (800 nM). The IC50 value is derived from three independent experiments. (FIG. 3B) Phospholipase activity of PLC-β3 activated by Gαq using lipid vesicles and inhibited by increasing concentrations of TAMRA-27-mer.
FIGS. 6A-C. Quantification of Gαq binding to peptides corresponding to the HTH of PLβ3. […] The structures of PLCβ3 (3 OHM) and p63RhoGEF (2RGN) bound to Gαq were superimposed and a single Gαq is shown. Immediately below is shown the sequence alignment of PLCβ3 (SEQ ID NO:37) and p63RhoGEF (SEQ ID NO:41) encompassing the helix-turn-helix. Underlined residues are labeled in the structure. […] (FIG. 6C) Increasing concentrations of unlabeled PLC-β3 were added to a solution of labeled 25-mer (400 nM) and Gαq (4 μM). KD and IC50 values were derived from three independent experiments.
Fluorescence polarization will be used to monitor disruption of complex formation between the 27-mer and active Gαq to identify compounds that directly compete with the complex. It is expected that the majority of these compounds will sit within the canonical effector-binding site of Gαq to prevent the binding of peptide—and by extension, prevent the binding of effectors. However, before using this assay format to identify inhibitors of complex formation it was necessary to insure that peptides corresponding to the HTH of PLC-β3 bound to Gαq. […] These experiments strongly support that peptides corresponding to the HTH of PLC-β3 directly bind to the effector pocket of Gαq and can be used as surrogates of effectors in assays of complex formation with active Gαq.
The most promising peptide consisted of 25 residues (TAMRA-25-mer) spanning the entire HTH and bound to G-alpha-q with appreciable affinity (Kd˜6 microMolar).

Molecule: Palm-PEG-PEG-HQDYAEALANPIKHVSL-Nle-DQRARQLAA (HQDYAEALANPIKHVSLXDQRARQLAA; non-natural residues) [Palm-27-mer, 27-mer HTH peptide with a palmityl lipid linked through PEG linkers]
- stimulation of PLC activity by Gαq downstream of the muscarinic receptor [1]: prevent the stimulation of PLC activity

B1: PLC-β3: full-length phospholipase C beta 3, effector of Gαq, used as unlabeled competitor (protein)
chain: AGAQPGVHALQLEPPTVVETLRRGSKFIKWDEETSSRNLVTLRVDPNGFFLYWTGPNMEVDTLDISSIRDTRTGRYARLPKDPKIREVLGFGGPDARLEEKLMTVVSGPDPVNTVFLNFMAVQDDTAKVWSEELFKLAMNILAQNASRNTFLRKAYTKLKLQVNQDGRIPVKNILKMFSADKKRVETALESCGLKFNRSESIRPDEFSLEIFERFLNKLCLRPDIDKILLEIGAKGKPYLTLEQLMDFINQKQRDPRLNEVLYPPLRPSQARLLIEKYEPNQQFLERDQMSMEGFSRYLGGEENGILPLEALDLSTDMTQPLSAYFINSSHNTYLTAGQLAGTSSVEMYRQALLWGCRCVELDVWKGRPPEEEPFITHGFTMTTEVPLRDVLEAIAETAFKTSPYPVILSFENHVDSAKQQAKMAEYCRSIFGDALLIEPLDKYPLAPGVPLPSPQDLMGRILVKNKKRHRPSAGGPDSAGRKRPLEQSNSALSESSAATEPSSPQLGSPSSDSCPGLSNGEEVGLEKPSLEPQKSLGDEGLNRGPYVLGPADREDEEEDEEEEEQTDPKKPTTDEGTASSEVNATEEMSTLVNYIEPVKFKSFEAARKRNKCFEMSSFVETKAMEQLTKSPMEFVEYNKQQLSRIYPKGTRVDSSNYMPQLFWNVGCQLVALNFQTLDVAMQLNAGVFEYNGRSGYLLKPEFMRRPDKSFDPFTEVIVDGIVANALRVKVISGQFLSDRKVGIYVEVDMFGLPVDTRRKYRTRTSQGNSFNPVWDEEPFDFPKVVLPTLASLRIAAFEEGGKFVGHRILPVSAIRSGYHYVCLRNEANQPLCLPALLIYTEASDYIPDDHQDYAEALINPIKHVSLMDQRARQLAALIGESEAQAGQETCQDTQSQQLGSQPSSNPTPSPLDASPRRPPGPTTSPASTSLSSPGQRDDLIASILSEVAPTPLDELRGHKALVKLRSRQERDLRELRKKHQRKAVTLTRRLLDGLAQAQAEGRCRLRPGALGGAADVEDTKEGEDEAKRYQEFQNRQVQSLLELREAQVDAEAQRRLEHLRQALQRLREVVLDANTTQFKRLKEMNEREKKELQKILDRKRHNSISEAKMRDKHKKEAELTEINRRHITESVNSIRRLEEAQKQRHDRLVAGQQQVLQQLAEEEPKLLAQLAQECQEQRARLPQEIRRSLLGEMPEGLGDGPLVACASNGHAPGSSGHLSGADSESQEENTQL
- Kd (activated Gαq): 10 to 100 nM
- competition with the 27-mer for binding to Gαq (Gαq): could effectively compete

Reference: patent publication US9540620B2, “Methods and compositions for modulating G-alpha-Q signaling” (The University of North Carolina at Chapel Hill, priority 2012, dated 2017)
